We go through 4 proteins from patent US12698494.

Where a chain is given by its changes, count along the chain named. Names may count otherwise.

In data set [1] the target is T1, FRETS-VWF73 fluorogenic substrate, P04275.
T1 chain: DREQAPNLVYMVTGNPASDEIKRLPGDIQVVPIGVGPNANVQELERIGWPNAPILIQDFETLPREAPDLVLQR

Data set [2] addresses Von Willebrand Factor (VWF) multimers, P04275.

B1: ADAMTS13 variant NGLY3 + R568A/Y665A + L591A/R636A/L637A/L668A (protein)
chain: AAGGILHLELLVAVGPDVFQAHQEDTERYVLTNLNIGAELLRDPSLGAQFRVHLVKMVILTEPEGAPNITANLTSSLLSVCGWSQTINPEDDTDPGHADLVLYITRFDLELPDGNRQVRGVTQLGGACSPTWSCLITEDTGFDLGVTIAHEIGHSFGLEHDGAPGSGCGPSGHVMASDGAAPRAGLAWSPCSRRQLLSLLSAGRARCVWDPPRPQPGSAGHPPDAQPGLYYSANEQCRVAFGPKAVACTFAREHLDMCQALSCHTDPLDQSSCSRLLVPLLDGTECGVEKWCSKGRCRSLVELTPIAAVHGRWSSWGPRSPCSRSCGGGVVTRRRQCNNPRPAFGGRACVGADLQAEMCNTQACEKTQLEFMSQQCARTDGQPLRSSPGGASFYHWGAAVPHSQGDALCRHMCRAIGESFIMKRGDSFLDGTRCMPSGPREDGTLSLCVSGSCRTFGCDGRMDSQQVWDRCQVCGGDNSTCSPRKGSFTAGRAAEYVTFLTVTPNLTSVYIANHRPAFTHLAVRIGGRYVVAGNMSISPNTTYPSLLEDGRVEYRVALTEDAAPRLEEIRIWGPLQEDADIQVYRRYGEEAGNATRPDITFTYFQPKPRQAWVWAAVRGPCSVSCGAGLRWVNYSCLDQARKELVETVQCQGSQQPPAWPEACVLEPCPPYWAVGDFGPCSASCGGGLRERPVRCVEAQGSLLKTLPPARCRAGAQQPAVALETCNPQPCPARWEVSEPSSCTSAGGAGLALENETCVPGADGLEAPVTEGPGSVDEKLPAPEPCVGMSCPPGWGHLDATSAGEKAPSPWGSIRTGAQAAHVWTPAAGSCSVSCGRGLMELRFLCMDSALRVPVQEELCGLASKPGSRREVCQAVPCPARWQYKLAACSVSCGRGVVRRILYCARAHGEDDGEEILLDTQCQGLPRPEPQEACSLEPCPPRWKVMSLGPCSASCGLGTARRSVACVQLDQGQDVEVDEAACAALVRPEASVPCLIADCTYRWHVGTWMECSVSCGDGIQRRRDTCLGPQAQAPVPADFCQHLPKPVTVRGCWAGPCVGQGTPSLVPHEEAAAPGRTTATPAGASLEWSQARGLLFSPAPQPRRLLPGPQENSVQSSACGRQHLEPTGTIDMRGPGQADCAVAIGRPLGEVVTLRVLESSLNCSAGDMLLLWGRLTWRKMCRKLLDMTFSSKTNTLVVRQRCGRPGGGVLLRYGSQLAPETFYRECDMQLFGPWGEIVSPSLSPATSNAGGCRLFINVAPHARIAIHALATNMGAGTEGANASYILIRDTHSLRTTAFHGQQVLYWESESSQAEMEFSEGFLKAQASLRGQYWTLQSWVPEMQDPQSWKGKEGT
In data set [1], B1 registered an Activity level (% relative to wild type ADAMTS13) VWFFRETS73 (% relative to wild type ADAMTS13) of 40.

B2: Full-length ADAMTS13 variant NGLY6 (636RLPRL640 to 636RNASL640) (protein)
chain: AAGGILHLELLVAVGPDVFQAHQEDTERYVLTNLNIGAELLRDPSLGAQFRVHLVKMVILTEPEGAPNITANLTSSLLSVCGWSQTINPEDDTDPGHADLVLYITRFDLELPDGNRQVRGVTQLGGACSPTWSCLITEDTGFDLGVTIAHEIGHSFGLEHDGAPGSGCGPSGHVMASDGAAPRAGLAWSPCSRRQLLSLLSAGRARCVWDPPRPQPGSAGHPPDAQPGLYYSANEQCRVAFGPKAVACTFAREHLDMCQALSCHTDPLDQSSCSRLLVPLLDGTECGVEKWCSKGRCRSLVELTPIAAVHGRWSSWGPRSPCSRSCGGGVVTRRRQCNNPRPAFGGRACVGADLQAEMCNTQACEKTQLEFMSQQCARTDGQPLRSSPGGASFYHWGAAVPHSQGDALCRHMCRAIGESFIMKRGDSFLDGTRCMPSGPREDGTLSLCVSGSCRTFGCDGRMDSQQVWDRCQVCGGDNSTCSPRKGSFTAGRAREYVTFLTVTPNLTSVYIANHRPLFTHLAVRIGGRYVVAGKMSISPNTTYPSLLEDGRVEYRVALTEDRNASLEEIRIWGPLQEDADIQVYRRYGEEYGNLTRPDITFTYFQPKPRQAWVWAAVRGPCSVSCGAGLRWVNYSCLDQARKELVETVQCQGSQQPPAWPEACVLEPCPPYWAVGDFGPCSASCGGGLRERPVRCVEAQGSLLKTLPPARCRAGAQQPAVALETCNPQPCPARWEVSEPSSCTSAGGAGLALENETCVPGADGLEAPVTEGPGSVDEKLPAPEPCVGMSCPPGWGHLDATSAGEKAPSPWGSIRTGAQAAHVWTPAAGSCSVSCGRGLMELRFLCMDSALRVPVQEELCGLASKPGSRREVCQAVPCPARWQYKLAACSVSCGRGVVRRILYCARAHGEDDGEEILLDTQCQGLPRPEPQEACSLEPCPPRWKVMSLGPCSASCGLGTARRSVACVQLDQGQDVEVDEAACAALVRPEASVPCLIADCTYRWHVGTWMECSVSCGDGIQRRRDTCLGPQAQAPVPADFCQHLPKPVTVRGCWAGPCVGQGTPSLVPHEEAAAPGRTTATPAGASLEWSQARGLLFSPAPQPRRLLPGPQENSVQSSACGRQHLEPTGTIDMRGPGQADCAVAIGRPLGEVVTLRVLESSLNCSAGDMLLLWGRLTWRKMCRKLLDMTFSSKTNTLVVRQRCGRPGGGVLLRYGSQLAPETFYRECDMQLFGPWGEIVSPSLSPATSNAGGCRLFINVAPHARIAIHALATNMGAGTEGANASYILIRDTHSLRTTAFHGQQVLYWESESSQAEMEFSEGFLKAQASLRGQYWTLQSWVPEMQDPQSWKGKEGTHHHHHH
On to B2, for which the “FRETS-VWF73 activity relative to wild-type ADAMTS13” value in data set [1] is reported as “NGLY6 showed a reduced activity when compared to wild-type ADAMTS13”.

B3: Full-length ADAMTS13 variant NGLY5 (635DRLPR639 to 635DNLSR639) (protein)
chain: B2 chain with R562N, N563L, A564S, S565R
With B3, the “FRETS-VWF73 activity relative to wild-type ADAMTS13” value in data set [1] is given as “The activity of NGLY5 was slightly reduced when compared to wild type ADAMTS13”. The “VWF multimer assay (urea-denatured recombinant VWF)” value in data set [2] is “a reduced VWF processing activity was observed for NGLY2 and NGLY5”.

B4: Full-length ADAMTS13 variant NGLY1 (567AREYV571 to 567ANETV571) (protein)
chain: B2 chain with R494N, Y496T, N563L, A564P, S565R
For the protein B4, in data set [1], the “FRETS-VWF73 activity relative to wild-type ADAMTS13” value was “The ability of NGLY1, 2, 3 and 4 was similar or higher when compared to wild-type ADAMTS13”.
